Data set [1] relates to MS2 coat protein. Description: apparent KD of MS2 coat protein, switch ON state; designed switch direction (-1 OFF switch, 1 ON switch): 1; higher = weaker reporter binding. As to conditions: FMN input: 0 or 200 uM; Eterna round: R93 (includes R88 designs). The gist of the method:
(§1)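 Designed RNA switches were transcribed on-chip from Illumina sequencing clusters. They were then titrated with SNAP-549-labelled MS2 coat protein (twofold steps, 0.7 or 1.5 nM to 3 µM; 0.8–1.5 h to 10–20 min per step) in 100 mM Tris-HCl pH 7.5, 80 mM KCl, 4 mM MgCl2, without or with constant ligand. Apparent KD is the per-design median of normalised cluster binding-curve fits.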

Data set [2] relates to MS2 coat protein. As to the kind of experiment: apparent KD of MS2 coat protein, switch OFF state (with FMN for OFF switches, without FMN for ON switches); designed switch direction (-1 OFF switch, 1 ON switch): 1; higher = weaker reporter binding. As to conditions: FMN input: 0 or 200 uM; Eterna round: R93 (includes R88 designs). The gist of the method: as §1

On to “GAAAAACAUGAGGAUCACCCAUGUAGAAAUAUGGGAGGAUAUACAAAGACGAAAGUCAAAGUAGAAGGCCUCAAAG [JL S1 M-MoE mod 2 In the Red]”, for which the entries for the “apparent KD of MS2 coat protein” value in data set [1] and in data set [2] were 84.9 nM and 78.2 nM, respectively.

As for “GAAAAACAUGAGGAUCACCCAUGUAGAAAUAUGGGAGGAUAUACAAAGUCGAAAGUCAAAGUAGAAGGCCUAAAAG [Garnet 26]”, the “apparent KD of MS2 coat protein” value in data set [1] is 40.7 nM; in data set [2], 170 nM.

With “GAAAAACAUGAGGAUCACCCAUGUAGAAAUAUGGGAGGAUAUACGAAGACGAAAGUCGAGGUAGAAGGCCUAAAAG [Garnet 54]”, the “apparent KD of MS2 coat protein” value was found to be 34.7 nM in data set [1] and 98 nM in data set [2].

In the case of “GAAAAACAUGAGGAUCACCCAUGUAGAAAUAUGGGAGGAUAUACUAAGACGAAAGUCGAUGUAGAAGGCCUAAAAG [Same State 1.4g (Mat - Mod of Eli - )]”, the “apparent KD of MS2 coat protein” value was 21.6 nM in data set [1] and 42.8 nM in data set [2].

On to “GAAAAACAUGAGGAUCACCCAUGUAGAGAUAUGGGAGGAUAUACGAAGACGAAAGACGAAGUAGAAGGCCUAAAAG [Garnet 58]”, for which the “apparent KD of MS2 coat protein” value in data set [1] worked out at 35.1 nM; in data set [2], 180 nM.

In the case of “GAAAAACAUGAGGAUCACCCAUGUGAGAAUAUGGGAGGAUAUACAAGGACGAGAGUCAAGGUAGAAGGCCUAAAAG [Mat - Same State 1 - Eli mod - 29]”, the “apparent KD of MS2 coat protein” value was found to be 41.7 nM in data set [1] and 247 nM in data set [2].

With “GAAAAACAUGAGGAUCACCCAUGUGAUAACAUGGGAGGAUAUACGAGGACGAUAGUCAAGGUAGAAGGCCUAAAAG [Garnet 60]”, the “apparent KD of MS2 coat protein” value in data set [1] was found to be 132 nM; in data set [2] it was 24.6 nM.

For the sequence “GAAAAACAUGAGGAUCACCCAUGUGUAAAUAUGGGAGGAUAUACGAAGACGUAAGUCAAAGUAGAAGGCCUAAAAG [Garnet 92]”, the results for the “apparent KD of MS2 coat protein” value in data set [1] and in data set [2] were 24.7 nM and 119 nM, respectively.

“GACCGACAUGAGGAUCACCCAUGUCGGAAAAGGCAAGGAUAUGGGCGGUACCAAUUUCGGUCAGAAGGUGCAAAAG [Aatisri]”: the “apparent KD of MS2 coat protein” value in data set [1] came out at 12.4 nM; in data set [2], 14.6 nM.

Take “GAGGACCUAGGAUAGGAUAUAUGAAUAAUUACAUGAGGAUCACCCAUGUCCAUUUAUAUGGGAACAUAGAAGGGUUCUGGUUAUC [SameState2 Malc#37]”: the “apparent KD of MS2 coat protein” value worked out at 36.9 nM in data set [1] and 60.6 nM in data set [2].

For “GAGUACAUAGUACAGGAUAUAUGAAUAGUUACAUGAGGAUCACCCAUGUGCAUUUAUAUGCGCACAUAGAAGGGUGGUAGGUAUC [Mat - Same state - Malcolm Mod - D127]”, the “apparent KD of MS2 coat protein” value in data set [1] turned out to be 38.8 nM; in data set [2], 29.4 nM.

For “GCAAAACAUGAGGAUCACCCAUGUCAACAAAAUCAAGGAUAUGAGCCGGCAUUGCCGGCAUCAGAAGGUGAACCUU [Gemaisinve]”, the “apparent KD of MS2 coat protein” value in data set [1] amounted to 96.1 nM; in data set [2] it was 129 nM.

On to “GGAAAGGAGAGAGAGGAUAUCCAAAGGAAAACAUGAGGAUCACCCAUGUAGAAGGUAGGAAAUUGGGAGAAGGCUCAAGAAAGAG [salish99-ss2-138]”, for which the results for the “apparent KD of MS2 coat protein” value in data set [1] and in data set [2] were 21 nM and 57.2 nM, respectively.

On to “GGAAAUAAAAGAGAGGAUAUCCAAAGGAAAACAUGAGGAUCACCCAUGUAAAAGGAAGGAAAGUGGGAGAAGGCUCAAAAUAAGG [salish99-ss2-008]”, for which the results for the “apparent KD of MS2 coat protein” value in data set [1] and in data set [2] were 29.6 nM and 49.9 nM, respectively.

Turning to “GGAAGACAUGAGGAUCACCCAUGUGGGAUUAUGGGAGGAUAUACAAAGACGAGAGUCAGAGUAGAAGGCCUAGGAA [salish99-ss1-120(!)]”, the “apparent KD of MS2 coat protein” value in data set [1] was determined as 28.6 nM; in data set [2], 79.1 nM.

“GGAGAACAUGAGGAUCACCCAUGUCGGAGAAGGCGAGGAUAUCGAAGGAGGAAGGAAGGACGAGAAGGCGCGGCAG [salish99-SS1-01]”: the “apparent KD of MS2 coat protein” value in data set [1] was found to be 15.9 nM; in data set [2], 21.4 nM.

As to “GGCAAACAUGAGGAUCACCCAUGUCAGUGCUAUCAAGGAUAUGGGAUGACGGAAGGUCGGCCAGAAGGUGAGAAAG [Quededma]”, the figures for the “apparent KD of MS2 coat protein” value in data set [1] and in data set [2] were 233 nM and 406 nM, respectively.

Consider “GGCUGCAAUUAUGAGGAUAUGUUUGGAUGAACAUGAGGAUCACCCAUGUGGCGAUAGCCGUCUAUGCAGAAGGUGUAGUGGCGGC [Ertion]”, for which the “apparent KD of MS2 coat protein” value was 25.9 nM in data set [1] and 59.1 nM in data set [2].

As to “GGGAGACAUGAGGAUCACCCAUGUGAGAAGAGGCGAGGAUAUCGAAAGAAAGAAGAGAAACGAGAAGGCGCGAGGU [salish99-SS1-055]”, the “apparent KD of MS2 coat protein” value in data set [1] amounted to 39.8 nM; in data set [2], 72.3 nM.

As for “GGGAGACAUGAGGAUCACCCAUGUGAGAAGAGGCGAGGAUAUCGAAAGAAAGAAGAGAAACGAGAAGGCGCGAGUC [salish99-SS1-062]”, the entries for the “apparent KD of MS2 coat protein” value in data set [1] and in data set [2] were 45.2 nM and 63.4 nM, respectively.

In the case of “GUGGCCCAGGCACAGGAUAUGUUUCUCGUAACAUGAGGAUCACCCAUGUGCCUAUGAGAUUUAAUGCAGAAGGGUGCACGCCACG [Atiinbe]”, the “apparent KD of MS2 coat protein” value in data set [1] was determined as 16.4 nM; in data set [2], 342 nM.

On to “GUGUAUAGCCUCGAGGAUAUCCUGUAAUGCACAUGAGGAUCACCCAUGUAUGAGCGAGUUUUUUGGGAGAAGGCGAGUUAUCGGU [JR_SS002_Sub1709]”, for which the figures for the “apparent KD of MS2 coat protein” value in data set [1] and in data set [2] were 12.9 nM and 24.2 nM, respectively.

With “UAAAAAACGUAUGAGGAUAUCCAAAAUAAAACAUGAGGAUCACCCAUGUGAAUAAAAUAACAAUGGGAGAAGGCAUACGUAUCAU [Mat - Same state - Malcolm Mod - D138]”, the figures for the “apparent KD of MS2 coat protein” value in data set [1] and in data set [2] were 46.3 nM and 20.8 nM, respectively.

Turning to “UAAAAACAUGAGGAUCACCCAUGUAAGAUAAACACAGGAUAUGCGAAAAGAAACAAAGAAGCAGAAGGGUGAAAAU [Mat - Same State 1 - Tesla mod - 44]”, the figures for the “apparent KD of MS2 coat protein” value in data set [1] and in data set [2] were 17.3 nM and 64.8 nM, respectively.

In the case of “UAAAAACAUGAGGAUCACCCAUGUAGAAAUAUGGGAGGAUAUACAAAGACGAAAGUCAAAGUAGAAGGCCUGAAAU [Mat - Same State 1 - Eli mod - 85]”, the entries for the “apparent KD of MS2 coat protein” value in data set [1] and in data set [2] were 21.5 nM and 88.7 nM, respectively.

For the sequence “UAACAACAUGAGGAUCACCCAUGUCAAACAGAUCGAGGAUAUGGGCAGGGUUUUCCCUAACUAGAAGGCGAAGACA [Leinxeerri]”, the entries for the “apparent KD of MS2 coat protein” value in data set [1] and in data set [2] were 71.1 nM and 181 nM, respectively.

Regarding “UACACGCGGGCGCAGGAUAUGUCGCUGGUGACAUGAGGAUCACCCAUGUAUACCAUUGCGGUUGAGCAGAAGGGUGAGAAGCGUG [Raanlaza]”, the figures for the “apparent KD of MS2 coat protein” value in data set [1] and in data set [2] were 20.4 nM and 56.3 nM, respectively.

As to “UAUCAUUACACGAAGGAUAUCGAUAAUAGAACAUGAGGAUCACCCAUGUGAAAUAAAAUACAGAACGAGAAGGUCGAGGGUGAAG [JR_SS002_Sub703]”, the “apparent KD of MS2 coat protein” value came to 19.7 nM in data set [1] and 16.8 nM in data set [2].

As for “UAUCAUUACACGAAGGAUAUCGAUAAUUGAACAUGAGGAUCACCCAUGUGCCAUUCUUUACAGUUCGAGAAGGUCGAGGGUGAAG [JR_SS002_Sub708]”, the “apparent KD of MS2 coat protein” value in data set [1] came out at 72.7 nM; in data set [2], 83.5 nM.

As for “UGAAGACAUGAGGAUCACCCAUGUGGGAUUAUGGGAGGAUAUACAAAGACGAGAGUCAGAGUAGAAGGCCUAGGAA [salish99-ss1-116(!)]”, the “apparent KD of MS2 coat protein” value is 36.1 nM in data set [1] and 68 nM in data set [2].

As to “UGAAGACAUGAGGAUCACCCAUGUGGGAUUAUGGGAGGAUAUACAAAGACGAGAGUCAGAGUAGAAGGCCUAGGAC [salish99-ss1-119(!)]”, the “apparent KD of MS2 coat protein” value stood at 32.2 nM in data set [1] and 72.9 nM in data set [2].

As for “UGGAGACAUGAGGAUCACCCAUGUGAGAAGAGGCGAGGAUAUCGAAAGAAAGAAGAGAAACGAGAAGGCGCGAGGG [salish99-SS1-043]”, the “apparent KD of MS2 coat protein” value in data set [1] came out at 49.7 nM; in data set [2], 52.1 nM.

“UGGAGACAUGAGGAUCACCCAUGUGAGAAGAGGCGAGGAUAUCGAAAGAAAGAAGAGAAACGAGAAGGCGCGAGUA [salish99-SS1-038]”: the “apparent KD of MS2 coat protein” value in data set [1] was found to be 32.1 nM; in data set [2], 39.3 nM.

Consider “UUGCAGUACGGGUAGGAUAUGUAGGGUGGUACAUGAGGAUCACCCAUGUGUCCACCCUUCGACCGGCAGAAGGGCCUGUCACUGC [Lerieseser]”, for which the “apparent KD of MS2 coat protein” value was found to be 17.5 nM in data set [1] and 17.3 nM in data set [2].

Consider “UUUAAUUAUACGAAGGAUAUCGGUAAUUAGACAUGAGGAUCACCCAUGUUAUAAGGUUCCAUAUUCGAGAAGGUCGCGGGUGAAC [JR_SS002_Sub509]”, for which the results for the “apparent KD of MS2 coat protein” value in data set [1] and in data set [2] were 16.1 nM and 18.2 nM, respectively.

For “UUUAAUUAUACGAAGGAUAUCGGUAAUUAGACAUGAGGAUCACCCAUGUUAUAUGGUUAAAUAUUCGAGAAGGUCGAGGGUGAAA [JR_SS002_Sub506]”, the “apparent KD of MS2 coat protein” value came to 30.2 nM in data set [1] and 32.1 nM in data set [2].

As for “UUUAAUUAUACGAAGGAUAUCGGUAAUUAGACAUGAGGAUCACCCAUGUUAUAUGGUUAAAUAUUCGAGAAGGUCGCGGGUGAAC [JR_SS002_Sub507]”, the “apparent KD of MS2 coat protein” value in data set [1] is 47.8 nM; in data set [2], 33.6 nM.

As to “UUUAGCUGCGGGCAGGAUAUGUAUUAAAAUACAUGAGGAUCACCCAUGUGCAGGUGUAACACCUGACAGAAGGGCCAAUCGCGGC [Bequre]”, the entries for the “apparent KD of MS2 coat protein” value in data set [1] and in data set [2] were 25 nM and 193 nM, respectively.

The values are drawn from the supplement of paper PMC9170038.
